This note sets out measurements from US6906179 (GENERAL HOSPITAL, dated 2005).

T1: HEF1 M2 (aa 651-834) (human, UniProt Q14511 651-834)
T1 construct: range 651-834
T1 sequence (looked up): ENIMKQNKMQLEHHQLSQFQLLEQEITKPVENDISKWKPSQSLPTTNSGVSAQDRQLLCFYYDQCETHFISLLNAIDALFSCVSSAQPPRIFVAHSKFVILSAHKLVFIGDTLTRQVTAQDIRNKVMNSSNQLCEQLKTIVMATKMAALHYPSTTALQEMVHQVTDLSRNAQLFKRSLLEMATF

T2: p105HEF1 (full length HEF1, 105 kD form) (human, UniProt Q14511 1-834, form derived from differential phosphorylation; sites not given)
T2 construct: Transfected into 293 cells; tag not described
T2 sequence (looked up): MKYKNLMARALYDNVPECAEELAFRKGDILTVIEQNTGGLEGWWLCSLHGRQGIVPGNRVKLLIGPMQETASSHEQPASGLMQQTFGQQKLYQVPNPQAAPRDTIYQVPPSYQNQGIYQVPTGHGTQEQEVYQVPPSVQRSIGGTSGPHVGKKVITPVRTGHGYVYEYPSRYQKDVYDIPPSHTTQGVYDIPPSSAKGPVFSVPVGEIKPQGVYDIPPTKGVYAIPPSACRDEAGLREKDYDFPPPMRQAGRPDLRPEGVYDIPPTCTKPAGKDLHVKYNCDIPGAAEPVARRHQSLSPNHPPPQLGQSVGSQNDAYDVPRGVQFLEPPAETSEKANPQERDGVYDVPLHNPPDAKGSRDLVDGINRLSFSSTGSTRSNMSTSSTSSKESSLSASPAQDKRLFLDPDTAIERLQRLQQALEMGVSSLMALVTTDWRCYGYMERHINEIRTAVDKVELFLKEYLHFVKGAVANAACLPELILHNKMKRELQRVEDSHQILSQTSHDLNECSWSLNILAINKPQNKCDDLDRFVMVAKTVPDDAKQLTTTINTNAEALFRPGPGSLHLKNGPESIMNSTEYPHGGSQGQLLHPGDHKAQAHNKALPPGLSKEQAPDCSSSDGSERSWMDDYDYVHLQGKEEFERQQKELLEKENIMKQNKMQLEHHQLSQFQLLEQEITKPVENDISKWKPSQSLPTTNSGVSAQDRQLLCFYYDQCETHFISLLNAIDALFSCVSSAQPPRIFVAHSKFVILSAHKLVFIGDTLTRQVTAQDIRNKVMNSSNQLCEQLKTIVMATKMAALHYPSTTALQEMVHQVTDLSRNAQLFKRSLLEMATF

T3: p115HEF1 (full length HEF1, 115 kD form) (human, UniProt Q14511 1-834, form derived from differential phosphorylation; sites not given)
T3 construct: Transfected into 293 cells; tag not described
T3 sequence (looked up): T2 sequence (looked up)

B1: Smad3N (aa 1-144) (other, UniProt P84022 1-144, looked up)
chain: MSSILPFTPPIVKRLLGWKKGEQNGQEEKWCEKAVKSLVKKLKKTGQLDELEKAITTQNVNTKCITIPRSLDGRLQVSHRKGLPHVIYCRLWRWPDLHSHHELRAMELCEFAFNMKKDEVCVNPYHYQRVETPVLPPVLVPRHT
notes: range 1-144; also called N-terminal MH1 domain of Smad3
B2: LexA-Smad1 (full length Smad1 fused in frame to the LexA DNA binding domain (1-202) in pEG202) (other)
chain: MKALTARQQEVFDLIRDHISQTGMPPTRAEIAQRLGFRSPNAAEEHLKALARKGVIEIVSGASRGIRLLQEEEEGLPLVGRVAAGEPLLAQQHIEGHYQVDPSLFKPNADFLLRVSGMSMKDIGIMDGDLLAVHKTQDVRNGQVVVARIDDEVTVKRLKKQGNKVELLPENSEFKPIVVDLRQQSFTIEGLAVGVIRNGDWLMNVTSLFSFTSPAVKRLLGWKQGDEEEKWAEKAVDALVKKLKKKKGAMEELEKALSCPGQPSNCVTIPRSLDGRLQVSHRKGLPHVIYCRVWRWPDLQSHHELKPLECCEFPFGSKQKEVCINPYHYKRVESPVLPPVLVPRHSEYNPQHSLLAQFRNLGQNEPHMPLNATFPDSFQQPNSHPFPHSPNSSYPNSPGSSSSTYPHSPTSSDPGSPFQMPADTPPPAYLPPEDPMTQDGSQPMDTNMMAPPLPSEINRGDVQAVAYEEPKHWCSIVYYELNNRVGEAFHASSTSVLVDGFTDPSNNKNRFCLGLLSNVNRNSTIENTRRHIGKGVHLYYVGGEVYAECLSDSSIFVQSRNCNYHHGFHPTTVCKIPSGCSLKIFNNQEFAQLLAQSVNHGFETVYELTKMCTIRMSFVKGWGAEYHRQDVTSTPCWIEIHLHGPLQWLDKVLTQMGSPHNPISSVS
notes: also called Smad1pEG202; full length Smad1 bait
B3: HEF1 M2/M (aa 695-759) (other, human, UniProt Q14511 695-759, looked up)
chain: TTNSGVSAQDRQLLCFYYDQCETHFISLLNAIDALFSCVSSAQPPRIFVAHSKFVILSAHKLVFI
notes: range 695-759
B4: Smad4 (other, UniProt Q13485 1-552, looked up)
chain: MDNMSITNTPTSNDACLSIVHSLMCHRQGGESETFAKRAIESLVKKLKEKKDELDSLITAITTNGAHPSKCVTIQRTLDGRLQVAGRKGFPHVIYARLWRWPDLHKNELKHVKYCQYAFDLKCDSVCVNPYHYERVVSPGIDLSGLTLQSNAPSSMMVKDEYVHDFEGQPSLSTEGHSIQTIQHPPSNRASTETYSTPALLAPSESNATSTANFPNIPVASTSQPASILGGSHSEGLLQIASGPQPGQQQNGFTGQPATYHHNSTTTWTGSRTAPYTPNLPHHQNGHLQHHPPMPPHPGHYWPVHNELAFQPPISNHPAPEYWCSIAYFEMDVQVGETFKVPSSCPIVTVDGYVDPSGGDRFCLGQLSNVHRTEAIERARLHIGKGVQLECKGEGDVWVRCLSDHAVFVQSYYLDREAGRAPGDAVHKIYPSAYIKVFDLRQCHRQMQQQAATAQAAAAAQAAAVAGNIPGPGSVGGIAPAISLSAAAGIGVDDLRRLCILRMSFVKGWGPDYPRQSIKETPCWIEIHLHRALQLLDEVLHTMPIADPQPLD
notes: also called DPC4
B5: Clone S1+27 (SIP2) (other)
chain: KSSPLLIRMEESLNIVKYTAFLYNDQLIWSGLEQDDMRILYKYLTTSLFPRHIEPELAGRDSPIRAEMPGNLQHYGRFLTGPLNLNDPDAKCRFPKIFVNTDDTYEELHLIVYKAMSAAVCFMIDASVHPTLDFCRRLDSIVGPQLTVLASDICEQFNINKRMSGSEKEPQFKFIYFNHMNLAEKSTVHMRKTPSVSLTSVHPDLMKILGDINSDFTRVDEDEEIIVKAMSDYWVVGKKSDRRELYVILNQKNANLIEVNEVKKLCATQFNNIFFLD
notes: Novel clone from the human fetal brain library; also called Clone Smad1+ (S1+)27
B6: Clone S1+12 (other)
chain: EFGTRRMMEGLDDGPDFLSEEDRGLKAINVDLQSDAALQVDISDALSERDKVKFTVHTKSSLPNFKQNEFSVVRQHEEFIWLHDSFVENEDYAGYIIPPAPPRPDFDASREKLQKLGEGEGSMTKEEFTKMKQELEAEYLAIFKKTVAMHEVFLCRVAAHPILRRDLNFHVFLEYNQDLSVRGKKKKKNSRSFGLLRQ
notes: also called sorting nexin-like protein
B7: HEF1 M2/N (aa 651-759) (other, human, UniProt Q14511 651-759, looked up)
chain: ENIMKQNKMQLEHHQLSQFQLLEQEITKPVENDISKWKPSQSLPTTNSGVSAQDRQLLCFYYDQCETHFISLLNAIDALFSCVSSAQPPRIFVAHSKFVILSAHKLVFI
notes: range 651-759
B8: HEF1 M2/C (aa 695-832) (other, human, UniProt Q14511 695-832, looked up)
chain: TTNSGVSAQDRQLLCFYYDQCETHFISLLNAIDALFSCVSSAQPPRIFVAHSKFVILSAHKLVFIGDTLTRQVTAQDIRNKVMNSSNQLCEQLKTIVMATKMAALHYPSTTALQEMVHQVTDLSRNAQLFKRSLLEMA
notes: range 695-832
B9: Clone S1+28 (other)
chain: FAVDAKALPQNKPRPLTQEEIAQRRERARQRHAEKLAAAQGQAPLEPTQDGSAIETCPKGDEPRGDEQQVESMTPKPVLQEENNQESFIAFARVFSGVARRGKKIFVLGPKYSPLEFLRRVPLCFSAPPDGLPQVPHMAYCALENLYLLMGRELEYLEEVPPGNVLGIGGLQDFVLKSATLCSLPSCPPFIPLNFEATPIVRVAVEPKHPSEMPQLVKGMKLLNQADPCVQILIQETGEHVLVTAGEVHLQRCLDDLKERFAKIHISVSEPIIPFRETITKPPKVDMVNEEIGKQQKVAVIHQMKEDQSKIPEGIQVDSDGLITITTPNKLATLSVRAMPLPEEVTQILEENSDLIRSMEQLTSSLNEGENTHMIHQKTQEKIWEFKGKLEQHLTGRRWRNIVDQIWSFGPRKCGPNILVNKSEDFQNSVWTGPADKASKEASRYRDLGNSIVSGFQLATLSGPMCEEPLMGVCFVLEKWDLSKFEEQGASDLAKEDRRKMKPVLVEMKTKSYKMAALRPLRRGHHRKENLHSLTAMDLSQDS
notes: Novel clone from the human fetal brain library; also called human homologue of yeast translocation elongation factor
B10: Smad1 (other, UniProt Q15797 1-465, looked up)
chain: MNVTSLFSFTSPAVKRLLGWKQGDEEEKWAEKAVDALVKKLKKKKGAMEELEKALSCPGQPSNCVTIPRSLDGRLQVSHRKGLPHVIYCRVWRWPDLQSHHELKPLECCEFPFGSKQKEVCINPYHYKRVESPVLPPVLVPRHSEYNPQHSLLAQFRNLGQNEPHMPLNATFPDSFQQPNSHPFPHSPNSSYPNSPGSSSSTYPHSPTSSDPGSPFQMPADTPPPAYLPPEDPMTQDGSQPMDTNMMAPPLPSEINRGDVQAVAYEEPKHWCSIVYYELNNRVGEAFHASSTSVLVDGFTDPSNNKNRFCLGLLSNVNRNSTIENTRRHIGKGVHLYYVGGEVYAECLSDSSIFVQSRNCNYHHGFHPTTVCKIPSGCSLKIFNNQEFAQLLAQSVNHGFETVYELTKMCTIRMSFVKGWGAEYHRQDVTSTPCWIEIHLHGPLQWLDKVLTQMGSPHNPISSVS
notes: also called Smad1 itself

The target of one data set is T1, HEF1 M2 (aa 651-834). Put plainly: co-immunoprecipitation, transfected cells.
The target of data set [1] is T4, Uba 80 (ubiquitin fusion protein), clones S1+36 and S1+38 (human, UniProt P62979 1-156). Put plainly: yeast two-hybrid screen, LexA-Smad1 bait. The source says:
(§1) From the pooled stock of the transformants, ten million cells are screened on U^-H^-W^-L^- galactose plates containing X-gal. Only those that form blue colonies are picked as candidate positives. […] Methods of sequencing employ such enzymes as the Klenow fragment of DNA polymerase I, Sequenase® (US Biochemical Corp, Cleveland, Ohio), Taq polymerase (Perkin Elmer, Norwalk, Conn.), thermostable T7 polymerase (Amersham, Chicago, Ill.), or combinations of recombinant polymerases and proofreading exonucleases such as the ELONGASE Amplification System (Gibco BRL, Gaithersburg, Md.). Preferably, the process is automated with machines such as the Hamilton Micro Lab 2200 (Hamilton, Reno Nev.), Peltier Thermal Cycler (PTC200; MJ Research, Watertown, Mass.) and the ABI 377 DNA sequencers (Perkin Elmer). […] The transformants are first streaked onto a master plate, then replicated onto two testing plates: U^-H^-W^- glucose plates with X-gal; U^-H^-W^- HW galactose/raffinose plates with X-gal.

For the data set “Smad3N (aa 1-144)”, the target named is B1. The data set is described as follows: co-immunoprecipitation, transfected cells.
The target of data set [2] is B2. Put plainly: yeast two-hybrid (data not shown).
The target of data set [3] is T2, p105HEF1 (full length HEF1, 105 kD form). Put plainly: co-immunoprecipitation, transfected 293 cells.
For data set [4], the target named is T3, p115HEF1 (full length HEF1, 115 kD form). Put plainly: co-immunoprecipitation, transfected 293 cells.
The target of data set [5] is B2. Put plainly: yeast two-hybrid; list of Smad1 interactors.
Excerpt: as §1

Another data set deals with T5, HsN3 (human, UniProt P28070 1-264, limits assumed).
T5 construct: also called β subunit of 20S proteasome; untagged HsN3 protein
T5 sequence (P28070 whole entry): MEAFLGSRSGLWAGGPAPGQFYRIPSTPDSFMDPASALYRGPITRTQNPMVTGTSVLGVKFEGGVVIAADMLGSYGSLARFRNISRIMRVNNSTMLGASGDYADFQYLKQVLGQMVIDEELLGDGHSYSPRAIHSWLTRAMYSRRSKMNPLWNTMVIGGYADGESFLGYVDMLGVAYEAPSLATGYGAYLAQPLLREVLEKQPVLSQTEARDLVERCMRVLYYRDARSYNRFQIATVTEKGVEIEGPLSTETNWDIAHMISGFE
The data set is described as follows: list of HsN3 interactors; method not detailed.

The target in data set [6] is T4, Uba 80 (ubiquitin fusion protein), …. Put plainly: list of S1+12 interactors; method not detailed.
Data set [7] deals with the molecule itself. Put plainly: list of S1+12 interactors; method not detailed.
The target of data set [8] is B2. Put plainly: yeast two-hybrid screen, LexA-Smad1 bait.
Excerpt: as §1

For B1, the binding result in the data set with HEF1 M2 (aa 651-834) is given as “no binding”.

B2: the binding result in data set [1] is “binds”.

Regarding B3, the binding result with Smad3N (aa 1-144) is on record as “no binding”.

For the molecule B4, the binding result in [2] is reported as “binds”; in data set [3] it was “no binding”; in [4], “no binding”.

For B5, the binding result in data set [5] was “binds”.

Consider B6, for which the binding result (in data set [5]; with HsN3; in data set [6]; in data set [7]) was “binds” in each case.

In the case of B7, in the data set with Smad3N (aa 1-144), the binding result is given as “no binding”.

In the case of B8, the binding result in the data set with Smad3N (aa 1-144) is “no binding”.

With B9, in data set [5], the binding result is reported as “binds”.

In the case of B10, the binding result in data set [8] is listed as “binds”.
